The assay deals with T1, MxEncA^FLAG, encapsulin shell protein A from Myxococcus xanthus with C-terminal FLAG tag (Myxococcus xanthus, UniProt Q1D6H4 1-287).
T1 construct: MxEncA, encapsulin shell protein of Myxococcus xanthus, mammalian codon-optimized synthetic gene; A^FLAG printed as 32.9 kDa; Assembles into shells of 60 (T = 1) or 180 (T = 3) subunits; also called nanoshell; source: also purified by anti-FLAG beads and FLAG-peptide elution; not shown: FLAG, C-terminal, kept
Kind of assay: native gel or EMSA; Blue Native PAGE (NativePAGE 3-12% Bis-Tris) of material eluted from the anti-FLAG Co-IP or the Strep-Tactin purification; Coomassie or silver stain. Particulars: both partners purified. Background: A gel shift assay detects complexes by their altered migration in electrophoresis.

B1: Encapsulin cargo protein D, non-tagged, from the multi-gene construct BCDP2A (natural protein, Myxococcus xanthus, UniProt Q1D9P3 1-109, looked up)
chain: MAKNSNPSAFDRDFGYLMPFLDRVAAAASDLEDASARAELTRLMVEEKARWQRIQELLGGAGGRGAAAPTPAREAPAEAPRLARGSADELHEAAPFATGLTVGSLRGSR
notes: MxEncD, native cargo protein of Myxococcus xanthus encapsulin, expressed from a single reading frame with B and C separated by P2A peptides; P2A skipping probably leaves residues of the P2A peptide on the proteins; also called MxEncD; EncD
Take B1: the binding result is “binds”.

B2: Encapsulin cargo protein C, non-tagged, from the multi-gene construct BCDP2A (natural protein, Myxococcus xanthus, UniProt Q1D3Y8 1-130, looked up)
chain: MPQTNPFHSLVPRKMTDTELARSIRLNIEAELDAINLYAAHIDATDNEDAKAILQHVMDEEREHAALFWELIARLDPEQAAHAKEAVEKYRLITSGASHEAVEAVGKEGAAPSPADVTPEKRLTVGSLRR
notes: MxEncC, ferritin-like native cargo protein of Myxococcus xanthus encapsulin, expressed from a single reading frame with B and D separated by P2A peptides; P2A skipping probably leaves residues of the P2A peptide on the proteins; also called MxEncC; EncC
As for B2, the binding result is given as “binds”.

B3: Encapsulin cargo protein B, non-tagged, from the multi-gene construct BCDP2A (natural protein, Myxococcus xanthus, UniProt Q1D6H3 1-158, looked up)
chain: MAGPPDSDLDDVARIRLVLARELETINEYEAYARASSNPEVRAFFQHLAAEEKEHVSEAVHMLRMLDSGQNDHFAKPFVPGHFQAAEAPAPATVHVPTPDGPAFSVNGRNGRLPSEPPTSLPPQRLLYGLPAPPPAVESHPLTVGSLRRGGGGSGSGR
notes: MxEncB, ferritin-like native cargo protein of Myxococcus xanthus encapsulin, expressed from a single reading frame with C and D separated by P2A peptides; P2A skipping probably leaves residues of the P2A peptide on the proteins; also called MxEncB; EncB
Regarding B3, the binding result was “binds”.

(Values after publication PMC5959871, “Bacterial encapsulins as orthogonal compartments for mammalian cell engineering” (Nature Communications, 2018).)
